The results in this text go back to patent US20200231683A1 (Bristol-Myers Squibb, published 2020).

The target in experiment [1] is T1, human CXCR4 (C-X-C chemokine receptor 4) (human, UniProt P61073 1-352).
T1 construct: also called CD184; LESTR
As to the kind of experiment: displacement of 100 pM ^125I-CXCL12 from CEM cells. The protocol:
The anti-CXCR4 antibodies were serially diluted 1:3 to yield a range of concentrations from 300 nM to 137 pM. […] An irrelevant antibody of the same isotype was used as a negative control.

Experiment [2] deals with T1, human CXCR4 (C-X-C chemokine receptor 4). The experiment is described as follows: flow cytometry on CEM cells (native human CXCR4), FITC anti-human IgG secondary. The protocol:
The antibodies were then mixed with CEM cells and allowed to bind before being detected with a FITC-conjugated anti-human IgG secondary antibody. The cells were then analyzed by fluorescence cytometry.

The target is the same in experiment [3]. The experiment is described as follows: cell-based or functional assay.

T1 sequence (P61073 whole entry): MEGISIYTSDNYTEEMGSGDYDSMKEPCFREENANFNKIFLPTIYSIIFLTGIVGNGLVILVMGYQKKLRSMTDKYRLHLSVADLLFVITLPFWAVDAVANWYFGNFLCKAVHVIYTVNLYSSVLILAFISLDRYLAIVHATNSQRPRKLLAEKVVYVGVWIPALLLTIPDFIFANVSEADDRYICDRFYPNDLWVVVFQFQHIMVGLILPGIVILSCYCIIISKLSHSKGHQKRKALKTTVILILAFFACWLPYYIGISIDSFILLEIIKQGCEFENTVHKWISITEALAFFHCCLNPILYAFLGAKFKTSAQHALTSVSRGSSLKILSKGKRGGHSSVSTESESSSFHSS

B1: D1 human anti-CXCR4 monoclonal antibody (antibody, V domains shown)
VH: EVQLVQSGGGLVQPGGSLRLSCAAAGFTFSSYSMNWVRQAPGKGLEWVSYISSRSKTIYYADSVKGRFTISRDNARNSLYLQMNSLRDEDTAVYYCARDYGGQPPYYYYYGMDVWGQGTTVTVSS
VL: VIWVTQSPSSLSASVGDRVTITCRTSQGISSWLAWYQQKPEKAPELLIYAASSLQSGVPSRFSGSGSGTDFTLTISSLQPEDFATYYCQQYNSYPRTFGQGTKVEIK
On to B1, for which the EC50 in experiment [1] turned out to be 28.6 nM; in experiment [2] it was 80 nM. Besides, in experiment [3], the “EC50 for inhibition of CXCL12-induced calcium flux in CEM cells” value was found to be 0.57 nM.

B2: E2 human anti-CXCR4 monoclonal antibody (antibody, V domains shown)
VH: EVQLVQSGGGLVQPGGSLRLSCAAAGFTFSSYSMNWVRQAPGKGLEWVSYISSRSRTIYYADSVKGRFTISRDNAKNSLYLQMNSLRDEDTAVYYCARDYGGQPPYHYYYGMDVWGQGTTVTVSS
VL: EIVLTQSPSSLSASVGDRVTITCRASQGISNWLAWYQQKPEKAPKSLIYAASSLQSGVPSRFSGSGSGTDFTLTISSLQPEDFATYYCQQYNSYPRTFGQGTKVEIK
In experiment [2], B2 yielded an EC50 of 290 nM.
